Consider eight substances from paper PMC9075797.

The target of test [1] is SARS-CoV-2 RBD tagged with a C-terminal Fc tag (SARS-CoV-2) (UniProt P0DTC2). Nature of the test: BLI. For orientation: BLI is a label-free optical method that tracks binding on a fibre tip over time.
The target in test [2] is SARS-CoV-2 RBD tagged with a C-terminal Fc tag (SARS-CoV-2; strain not stated, ancestral (Wuhan-Hu-1) assumed) (UniProt P0DTC2). The test is described as follows: BLI.

In general, Kd refers to the equilibrium constant for the complex coming apart. Low readings indicate higher affinity, high ones lower affinity. A word on the koff: it is the rate constant with which the complex falls apart. A lower koff goes with slow dissociation. The term kon denotes a measure of how fast the partners come together. Lower therefore signals slow association. In test [1], “(Nb1_(42))2, Tet-linked homodimer of VHH72 with Tet3.0 at Gly42” yielded a Kd of 27.5 nM, a dissociation rate constant (koff) of 0.00201 s⁻¹ and a kon of 73100 M⁻¹ s⁻¹.

As for “Nb1-Nb1-Nb1 tail-to-head genetically linked trimer of VHH72”, in test [2], the Kd amounted to 27.9 nM, the koff worked out at 0.00156 s⁻¹ and the kon is 57900 M⁻¹ s⁻¹.

For “(Nb1_(13))2, Tet-linked homodimer of VHH72 with Tet3.0 at Gln13”, in test [1], the Kd came to 46 nM, the dissociation rate constant (koff) came out at 0.00156 s⁻¹ and the kon is 33800 M⁻¹ s⁻¹.

In test [2], “Nb1-Nb1 tail-to-head genetically linked dimer of VHH72” yielded an off-rate constant (koff) of 0.00314 s⁻¹ and a kon of 35400 M⁻¹ s⁻¹.

In the case of “(Nb1C)2, Tet-linked homodimer of VHH72 with Tet3.0 at the C terminus”, in test [2], the Kd was 132 nM, the koff was 0.0064 s⁻¹ and the kon was determined as 48100 M⁻¹ s⁻¹.

“(Nb1N)3, Tet-linked homotrimer of VHH72 with Tet3.0 at the N terminus”: in test [1], the Kd was determined as 2.31 nM, the koff worked out at 0.000566 s⁻¹ and the kon turned out to be 246000 M⁻¹ s⁻¹.

In test [1], “(Nb1N)-(Nb2_(42)), Tet-linked heterodimer of VHH72 (Tet3.0 at the N terminus) and H11-H4 (Tet3.0 at Gly42)” displayed a Kd of 3.93 nM, a koff of 0.000593 s⁻¹ and an association rate constant (kon) of 151000 M⁻¹ s⁻¹.

In the case of “(Nb1N)2, Tet-linked homodimer of VHH72 with Tet3.0 at the N terminus”, in test [1], the Kd came out at 13.8 nM, the koff stood at 0.00119 s⁻¹ and the kon turned out to be 85800 M⁻¹ s⁻¹.
